Legend:
[1] = biological target: T1, CatS on the cell surface of HCT116 cells (Homo sapiens, UniProt P25774); test: flow cytometry staining of HCT116 cells with CatS monoclonal antibody; assay type: binding; details: HCT116 cells stained for CatS
T1 construct: CatS expression is localised to the cell surface on HCT116 cells; endogenous in cells; host or cells: HCT116
Protocol: Cells were collected from tissue culture plates using a scraper and washed ×3 in PBS (0.01% tween) (5 minute centrifugation at 1500 rpm). Approximately 5×10^5 cells were placed in appropriately labelled tubes. Cells were incubated with 50 μl anti-CatS or Isotype control (Sigma, UK) for 1 hour at room temperature. Following incubation each tube was washed ×3 in PBS (0.01% tween) (5 minute centrifugation at 1500 rpm). Samples were then incubated with a 1 in 15 dilution of FITC-conjugated goat anti-mouse secondary antibody (Sigma, UK) (samples kept in dark at room temperature). Following incubation each tube was washed ×3 in PBS (0.01% tween) (5 minute centrifugation at 1500 rpm). Samples were resuspended in 0.5 ml of PBS prior to immediate analysis using the Cyan flow cytometer (Dako, UK).
HCT116 cells were stained for CatS expression using a CatS monoclonal antibody as before. Cells were grown on glass coverslips, fixed using ice-cold acetone and incubated with CatS antibody at a 1:100 dilution. Coverslips were rinsed with PBS and incubated with antimouse AlexaFluor® 488 labelled secondary antibody. Coverslips were washed again using PBS, mounted using PermaFluor mounting media and visualised by confocal microscopy.
The presence of Cathepsin S on the cell surface of tumour cells was further confirmed using confocal microscopy. […]

CatS [2] = biological target: T2, CatS (Homo sapiens, UniProt P25774); test: fluorimetric assay of CatS proteolytic activity; assay type: biochemical
T2 sequence (P25774 115-331): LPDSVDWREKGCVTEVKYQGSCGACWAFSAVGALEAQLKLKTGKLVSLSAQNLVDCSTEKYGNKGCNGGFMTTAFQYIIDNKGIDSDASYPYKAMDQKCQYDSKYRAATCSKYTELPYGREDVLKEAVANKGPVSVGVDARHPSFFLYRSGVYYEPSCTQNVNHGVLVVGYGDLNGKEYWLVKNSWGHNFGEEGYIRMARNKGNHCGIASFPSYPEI
Excerpt: The ability of an agent, for example a small molecule or antibody, to inhibit the proteolytic activity of Cathepsin S may be tested using any suitable method. For example a fluorimetric assay may be used. In such an assay, any suitable fluorigenic substrate may be used, for example Cbz-Phe-Arg-AMC. An agent is considered to inhibit the proteolytic activity of Cathepsin S if it has the ability to inhibit its activity by a statistically significant amount. For example, in one embodiment, an agent for use as the Cathepsin S inhibitor is able to inhibit the […] activity by at least 10%, for example at least 25%, 50%, 70%, 80% or 90%, when compared to an appropriate control antibody.
As shown in co-pending PCT application WO2006/109045, the contents of which are incorporated herein by reference, which claims priority from GB0507219.4 and GB0507272.3, this antibody has potent inhibitory activity.
(§1) The F47 Cathepsin S 1C11 1E11 1E4 cell line which is the hybridoma cell line that produces the IE4 antibody has been deposited with the European Collection of Cell Cultures (“ECACC”) under Accession No. 15072905.

[3] = tested on: human microvascular endothelial cells (HMECs); test: Matrigel capillary-like tube formation assay; assay type: cell-based
Protocol: The effect of the CatS mAb on endothelial cell tube formation was assessed as follows. Two hundred microliter of Matrigel (10 mg/ml) was applied to pre-cooled 48-well plates, incubated for 10 min at 4° C. and then allowed to polymerize for 1 h at 37° C. Cells were suspended in endothelial growth cell medium MV (Promocell), containing 200 nM of the appropriate antibody. Five hundred microliter (1×10^5 cells) were added to each well. As controls, cells were incubated with vehicle-only control medium containing the appropriate volumes of PBS. After 24 h incubation at 37° C. and 5% CO2, cells were viewed using a Nikon Eclipse TE300 microscope.
Using the Matrigel morphogenesis assay described by Grant et al (Cell 1989 Sep. 8; 58 (5): 933-43), capillary-tubule formation assays were performed with human microvascular endothelial cells (HMECs) cultured on Matrigel enabling the endothelial cells form tube-like structures, with invasive sprouts extending from individual cells to form contacts with nearby endothelial cells. FIG. 15a illustrates the results when the HMEC cells were cultured in the presence of two CatS antibodies (1E11 and 1E4) or isotype control.

other cathepsins = test: binding specificity / cross-reactivity with other cathepsins; details: in particular those with the greatest homology to CatS
Excerpt: as §1

[4] = tested on: HCT116+/+ human colorectal adenocarcinoma xenograft; test: HCT116+/+ xenograft model, immunohistochemistry of tumour sections; assay type: in vivo, SCID mice; details: CatS 1E11+5Fu (IC50) vs Mouse IgG1+5-Fu control
Protocol: Briefly, sections were deparaffinised by passing from xylene to alcohol to running water. Endogenous peroxidase activity was blocked by incubation in 3% H2O2 in methanol for 10 min. Sections were then boiled in citrate buffer, pH6.0, for 22 min. Incubation in 5% normal horse serum blocking solution was carried out for 20 min at room temp. Sections were incubated with primary antibody at 4° C. overnight. Appropriate isotype controls were used at the same dilutions as primary antibodies. […]

[5] = examination of major mouse organs after treatment in xenograft model; assay type: in vivo, SCID mice
Protocol: 6-8 week old female SCID mice were implanted with 2×10^6 HCT116+/+ human colorectal adenocarcinoma cells into each flank. […] They were mixed with equal volumes of matrigel to give a final concentration of 5×10^6 cells/ml. Mice were randomly separated into treatment groups on day 5 after implantation and treated with various regimes of CatS Mab or Isotype control Mab (10 mg/kg) with/without 5Fu (15 mg/kg daily or 70 mg/kg twice weekly). All drugs were administered through a bolus injection. Animals were sacrificed at various time points and tumours were removed for analysis.
Paraffin embedding of formalin-fixed xenograft/organ tissue samples, section cutting and H&E (haematoxylin and eosin) staining of tissue sections were performed as previously described. Immunostaining was performed using the avidin-horseradish peroxidase method (Vectorlabs ABC Kit).
All major mouse organs were examined for architectural changes following treatment.

rat aortic ring segments = test: ex vivo rat aortic arch (ring) assay in Matrigel; assay type: cell-based
Protocol: Male Wistar rats are euthanised and the thoracic aorta is aseptically removed and sectioned into […] thick rings. The rings are washed ten times in sterile medium to remove any bacteria and embedded into Matrigel on 24 well plates. The wells are supplemented with 2 ml of medium and increasing concentrations of antibodies. The plate is incubated for 8 days and post incubation the Matrigel and rings are fixed in 4% PBS buffered paraformaldehyde and stored in PBS. The extent of vessel development is blindly assessed microscopically by an independent investigator and quantified using a calibrated eyepiece graticule (1 mm/100 μm graduation) at 20× magnification (Olympus BX 50). The extent of vessel length, maximum vessel length and number of vessels in each field of view is measured and compared to time matched sham controls and the % inhibition calculated.
To evaluate further the role of CatS in angiogenesis, an ex vivo rat aortic arch assay was performed. Sections of the aorta (1 mm) were cultured within a thin layer of Matrigel in the presence of the inhibitory antibody and appropriate controls. The formation of tube-like vessels from the aorta were monitored and quantified after 7 days by measuring the reduction in the number of vessels, mean vessel length and maximum vessel length compared to controls.

CatS [6] = biological target: T2, CatS; details: fluorigenic substrate; shown in co-pending WO2006/109045; cited from earlier work
[7] = tested on: PC3 prostate carcinoma cell line; details: shown in co-pending WO2006/109045; cited from earlier work
[8] = tested on: U251mg astrocytoma cell line; details: shown in co-pending WO2006/109045; cited from earlier work
[9] = tested on: HCT116 colorectal carcinoma cell line; details: shown in co-pending WO2006/109045; cited from earlier work
[10] = tested on: MDMB231 breast cancer cell line; details: shown in co-pending WO2006/109045; cited from earlier work
[11] = tested on: MCF 7 breast cancer cell line; details: shown in co-pending WO2006/109045; cited from earlier work
[12] = repeat experiment, up to 10 μg/ml

T1 sequence (P25774 115-331): as above

B1: 1E11: Cathepsin S inhibitory monoclonal antibody; VH Seq ID No: 7, VL Seq ID No: 8, CDRs Seq ID Nos: 1-6 (antibody, listed as Mus musculus, V domains shown)
VH: VQLQESGGVLVKPGGSLKLSCAASGFAFSSYDMSWVRQTPEKRLEWVAYITTGGVNTYYPDTVKGRFTISRDNAKNTLYLQMSSLKSEDTAMYYCARHSYFDYWGQGTTVTVSS
VL: DVLMTQTPLSLPVSLGDQASISCRSSQSLVHSNGNTYLHWYLQKPGQSPKLLIYKVSNRFSGVPDRFSGSGSGTDFTLKISRVEAEDLGVYFCSQTTHVPPTFGSGTKLEIKR
modifications: VH domain amino acid sequence; VL domain amino acid sequence
**Q.** Which “increase in fluorescent intensity in comparison to the isotype control” value [1] does the source give for B1 here?
**A.** The value was 38%.

**Q.** What about the “ability to inhibit the catalytic activity of CatS” value (CatS [2]) of the same molecule?
**A.** The value was “can specifically inhibit the activity of CatS”.

**Q.** What about the “tube formation of HMEC cells on Matrigel” value ([3]; antibody 200 nM, 24 h, vs vehicle-only and isotype control) of the same molecule?
**A.** The value was “almost completely abolished”.

**Q.** What about the “capillary tubule formation in Matrigel assay” value ([3]; summary statement, no concentration given) of the same molecule?
**A.** The value was “inhibit capillary tubule formation”.

**Q.** And the “cross-reactivity with other cathepsins” value (other cathepsins)?
**A.** Its value is “no cross-reactivity with other cathepsins”.

**Q.** And the “caspase 3 activity in tumour tissue (anti-cleaved caspase-3 staining)” value [4]?
**A.** Its value is “increase in caspase 3 activity”.

**Q.** And the “architectural / pathological change of major mouse organs” value ([5]; nine-day drug regime CatS 1E11+5Fu (IC50))?
**A.** Its value is “No signs of pathological change”.

**Q.** And the adverse toxic effect ([5]; repeated treatment with 10 mg/kg in combination with chemotherapy)?
**A.** The adverse toxic effect was “no adverse toxic effect”.

**Q.** What about the “reduction in maximum vessel length” value (rat aortic ring segments; [12]) of the same molecule?
**A.** The value was 60%.

**Q.** And the “reduction in mean vessel length” value (rat aortic ring segments; [12])?
**A.** The value was 60%.

**Q.** What about the “reduction in total vessel number” value (rat aortic ring segments; [12]) of the same molecule?
**A.** The value was 70%.

**Q.** And the “reduction in maximum vessel length” value (rat aortic ring segments; up to 600 nM)?
**A.** The value was “greater than 80%”.

**Q.** What about the “reduction in mean vessel length” value (rat aortic ring segments; up to 600 nM) of the same molecule?
**A.** The value was “greater than 80%”.

**Q.** And the “reduction in total vessel number” value (rat aortic ring segments; up to 600 nM)?
**A.** Its value is “greater than 80%”.

**Q.** What about the “inhibition of proteolytic activity of CatS” value (CatS [6]) of the same molecule?
**A.** Its value is “inhibits the proteolytic activity of CatS”.

**Q.** What about the “inhibition of tumour cell invasion” value [7] of the same molecule?
**A.** Its value is “potently inhibit tumour cell invasion”.

**Q.** And the “inhibition of tumour cell invasion” value [8]?
**A.** Its value is “potently inhibit tumour cell invasion”.

**Q.** What about the “inhibition of tumour cell invasion” value [9] of the same molecule?
**A.** Its value is “potently inhibit tumour cell invasion”.

**Q.** What about the “inhibition of tumour cell invasion” value [10] of the same molecule?
**A.** Its value is “potently inhibit tumour cell invasion”.

**Q.** And the “inhibition of tumour cell invasion” value [11]?
**A.** The value was “potently inhibit tumour cell invasion”.
